Tested on: MS2 coat protein
Test: apparent KD of MS2 coat protein; designed switch direction (-1 OFF switch, 1 ON switch): -1; higher = weaker reporter binding
In short: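 Normalised cluster fluorescence was curve-fitted, and each design's median over clusters is its apparent KD. Before this, SNAP-549-labelled MS2 coat protein was titrated from 0.7 or 1.5 nM, doubling to 3 µM, over RNA switches transcribed on Illumina chips by stalled E. coli RNA polymerase. Titrations had no input, 200 uM small-molecule ligand, or an oligonucleotide input, and steps lasted 0.8–1.5 h (lowest) to 10–20 min (highest).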

[1] = input ligand: microRNA oligo, concentration not stated
[2] = Eterna round: R95, input ligand: microRNA oligo, concentration not stated
[3] = Eterna round: R95, input ligand: FMN 200 uM
[4] = Eterna round: R95, input ligand: none

Sequence	apparent KD of MS2 coat protein (input ligand: FMN 200 uM)	apparent KD of MS2 coat protein [1]	apparent KD of MS2 coat protein (input ligand: none)	apparent KD of MS2 coat protein [2]	apparent KD of MS2 coat protein [3]	apparent KD of MS2 coat protein [4]
UAAUUAAUAAGAUCAAUUAAUUAACAUGAGGAUCACCCAUGUGAGGAUAUCAGCUCGUUUAGAGCUGAGAAGGCACAAUAAUUA [ExNG3/17-C2] (Eterna round: R96, puzzle: Exclusion NG 3)	72 nM	41.6 nM	46.8 nM			
GCUGCGCGAGGAUAUGCGGUUUGUGCUGUGGCCCGUGGCGUACAUGAGGAUCACCCAUGUAGAAGGCGUGUGGG [Apr-15 SS2-54] (puzzle: Exclusion 2)				22.5 nM		
UUUGUUUAUGUAGGAUAUGCCUGGCGUGCCUUUGCAGAAGGACAUGAGGAUCACCCAUGUAUUGCGGUCUGCGUUCAGAUCGCA [salish99_ExNG1_r4_038] (Eterna round: R96, puzzle: Exclusion NG 1)	43.2 nM	30.2 nM	29.4 nM			
AUUUAGCGAGGAUAUACCAACGUGAUCUUCGACUGAGCGGCACUUGAGGAUCACCCAAGUAGAAGGCGCACUAU [Onleindian] (Eterna round: R97, puzzle: Exclusion 2)	346 nM		207 nM			
CACAAGCUUUUUUGUUGCUUUUUAGUUGGUGUAUGAUAAACAUGAGGAUCACCCAUGUAAUAGAUGCUCGAUCUUUU [JR_SV3TOV2_Sub083] (puzzle: Sensor v3, turn-off variant 2)				21.7 nM	24.5 nM	27 nM
AAGCUGUCAGGAUAUCGUUAAUUUAGUUGUUUGUAUUAGUUCGAGAAGGGACAUGAGGAUCACCCAUGUAUGUA [Ex4 #39] (Eterna round: R97, puzzle: Exclusion 4)	76.3 nM		34.2 nM			
UUGCCUAAUGUUAGGAUAUGCGACGGGUGACCGUUGCAGAAGGAACAUGAGGAUCACCCAUGUUUAAUAAAAUC [JL-BMX4-4.43 ViennaUCT mod] (Eterna round: R97, puzzle: Brourd's mod of Exclusion 4)	69.3 nM		14.9 nM			
CCAUCGAGUGUGAGGAUAUGCUGUUCCUUGGAGCAGCAGAAGGCACAUGAGGAUCACCCAUGUGGAUACGGUGG [Mat - Exclusion 4 - JL Mod - D80] (puzzle: Brourd's mod of Exclusion 4)				33.4 nM		
CUUUUGUGAGGAUAUUAGUAGUAAAUAAAUUAAAUUACUACUGAGAAGGCACAUGAGGAUCACCCAUGUUCCUC [salish99_ex4_r3_057] (Eterna round: R96, puzzle: Exclusion 4)	428 nM	32.8 nM	36.6 nM			
UUCCUCUCUUCUUUGUCUCACAUGAGGAUCACCCAUGUAACAUAGGAUAUGCUUGGUAUUUAUAUGCAGAAGGAUGUUAGUAUU [JR_ExcNG3_Sub083] (Eterna round: R96, puzzle: Exclusion NG 3)	60.8 nM	19 nM	25.7 nM			
AAGAAACAUGAGGAUCACCCAUGUGAGGAUAUGAUGAAGAAAAGAAAAGAAAGAAGAGUCAGAAGGCACAAAGG [salish99-ex1_r3_064] (puzzle: Exclusion 1)				55.9 nM	96 nM	69.2 nM
GCGUAGUAUGUAGGAUAUCGGUCAGUUUCUGAUCGAGAAGGACAUGAGGAUCACCCAUGUAAAACGUCCGGUUUCUGGAUACGC [JL ENG1 3.57] (Eterna round: R96, puzzle: Exclusion NG 1)	27.5 nM	16.3 nM	23 nM			
GUCGUGCAGCUUUGCUGUACGAGUACAUGAGGAUCACCCAUGUAGGAUAUGGUACGCUUUGCGUGCUAGAAGGAUAUGUGUAGA [salish99_ExNG3_r04_502] (Eterna round: R96, puzzle: Exclusion NG 3)	53.5 nM	30.2 nM	36.1 nM			
GACAGACGAGCGUGAGCCGACAUGAGGAUCACCCAUGUGCUCGUCUUAUAACGUACUGUCACGUUAGUGAUAGUGCG [Sensor v3, turn-off variant 1 (MOD of Eli's v1-13 v.4)] (puzzle: Sensor v3, turn-off variant 1)				42.7 nM	54.3 nM	56.7 nM
AGCAGACGAGGAUAUGAUAAUUAAUACAUGAGGAUCACCCAUGUAAUACUGAUCGAUAGAUCAGAAGGCGUCUGCU [E5/3-A2] (Eterna round: R97, puzzle: Exclusion 5)	14.7 nM		16.4 nM			
UUAUUAAUUAAUAUUAUAAGAUCACAUGAGGAUCACCCAUGUCAGGAUAUCAGCUCGUUUAGAGCUGAGAAGGGACAAAUAAUA [ExNG3/15-B2] (Eterna round: R96, puzzle: Exclusion NG 3)	118 nM	187 nM	189 nM			
CAUUUCUGUCGUUGAUCCAACAUGAGGAUCACCCAUGUCUCUUUAGCUUUUUGCUCGUCUUAUCCUCCUUUGUUCAC [JR_STOV1_Sub099] (Eterna round: R97, puzzle: Sensor, turn-off variant 1)	499 nM		835 nM			

Sequence	apparent KD of MS2 coat protein (input ligand: FMN 200 uM)	apparent KD of MS2 coat protein [1]	apparent KD of MS2 coat protein (input ligand: none)	apparent KD of MS2 coat protein [2]	apparent KD of MS2 coat protein [3]	apparent KD of MS2 coat protein [4]
UAAUUACAUGAGGAUCACCCAUGUGAGGAUAUGUCCAUAUUCGGCAAAUCGGAUAUGGACAGAAGGCACACCGG [JR_Exclusion1_Sub009] (puzzle: Exclusion 1)				55.8 nM		
UUUUAACAUGAGGAUCACCCAUGUGAGGAUAUCGAAAUUUAUAUUAAUAUUUUUAUUUCGAGAAGGCACAUUUU [JMF 73] (puzzle: Exclusion 1)				138 nM		
CAGGACAGAGGAUAUACAUAGAUACAGAUUCAUGUAGAACUACAUGAGGAUCACCCAUGUAGAAGGCUGUCCUG [Fiskers Ex 2 - 3] (Eterna round: R96, puzzle: Exclusion 2)	370 nM	25 nM	33.5 nM			
UUUUAGAGAGGAUAUAUGAUGUGAAACAUGAGGAUCACCCAUGUAAUAUUAUGGAUGUAAAUAGAAGGCUCAUUUA [JL-ex5-3.05] (puzzle: Exclusion 5)				63.3 nM	38.8 nM	69.1 nM
CAUCUCGUAGGAUAUUCACAAAAGCACAUGAGGAUCACCCAUGUUAUCCGACAUGAUGCCGAAGAAGGACGAAAAC [Di] (puzzle: Exclusion 5)				79.8 nM	107 nM	78.9 nM
GCGCGAAGGUAGGAUAUCGAGGGAUCUUCCCGCCGAGAAGGACCCACAUGAGGAUCACCCAUGUGGUGAUCCUG [eternacac ex6r4 sub9] (Eterna round: R97, puzzle: Exclusion 6)	27.1 nM		49.4 nM			
GCGCACCUACCAAAAGGUAGGCUAACAUGAGGAUCACCCAUGUAGGAUAUCGAUUGCUUUGCAGUCGAGAAGGACAUGAUGCGC [JL ENG3 3.80 Mod 11] (Eterna round: R96, puzzle: Exclusion NG 3)	73.2 nM	21.4 nM	30 nM			
AAAACCAGAGGAUAUGCGCAUAGAUCAGACUUUGUUUCUGAACAUGAGGAUCACCCAUGUAGAAGGCUGUAAAA [Ex2 #82] (Eterna round: R97, puzzle: Exclusion 2)	27.3 nM		20.5 nM			
GUAGAGUCAGGAUAUACGAGAUCGAAAGAUCUUUGAUCCUUACAUGAGGAUCACCCAUGUAGAAGGGACUCUAC [Omei mod 2 to Eli's favorate candidate (ch.parushev)] (Eterna round: R97, puzzle: Exclusion 2)	513 nM		43.2 nM			
GUAUAGCUAAAGGAUAUUCUCCGACGACGUGAAGAAGAAGGUUGGACAUGAGGAUCACCCAUGUGUACAGGAUA [Eternabot (L2) Solution 62] (Eterna round: R97, puzzle: Exclusion 6)	21.9 nM		21.8 nM			
GGUCUUCAAGUCAGGAUAUCGUAUAAUAGAUAUAACGAGAAGGGACAUGAGGAUCACCCAUGUCGUCUCAUCAG [Ex4 #21] (Eterna round: R97, puzzle: Brourd's mod of Exclusion 4)	83.9 nM		27 nM			
CCAUAUAACUGAGGAUAUGAUCACCACUAACAUUCAGAAGGCAGACAUGAGGAUCACCCAUGUGAUUUCUCAAUAUUAUACAUC [Prohibition 76 - Jieux - Exclusion NG 1] (Eterna round: R96, puzzle: Exclusion NG 1)		375 nM				
AAAGUGGGCCAGAACAUGAGGAUCACCCAUGUCUGAAAUAGCAAGGAUAUUACGAGCAAAAGGAGUAAGAAGGUGCACAGUACG [Eternabot solution 41] (Eterna round: R96, puzzle: Exclusion NG 3)	24 nM	15.4 nM	23.6 nM			
CAUUGUUAUCGAGGAUAUCGUAUUGAGAUACUACGAGAAGGCGGACUAAACAUGAGGAUCACCCAUGUGAGACGGAUGCUUGGG [Ex NG1 #33] (Eterna round: R96, puzzle: Exclusion NG 1)	59 nM	21 nM	34.3 nM			
AUAUUAAUAGUAAGGAUAUGCGUGUAUGUAGUUAUGCAGAAGGUACAUGAGGAUCACCCAUGUAUUAAUGUGUG [LRO-BmodExc4-06-Oppy's Opus] (Eterna round: R97, puzzle: Brourd's mod of Exclusion 4)	21.6 nM		17.3 nM			
CCCUCAGUCUAGGAUAUAACAAUCAGAUAUCAGUUAGAAGGAGACACAUGAGGAUCACCCAUGUGGGUCAAUAA [Bearener] (puzzle: Exclusion 6)				20.2 nM	50.7 nM	21.3 nM

— the supplement of paper PMC9170038
